B1: FLAG-tagged IRAK2 WT [mouse] / ALYREF [human (endogenous in IL1R-293 and HeLa)] (parent)
chain 1: MACYIYQLPSWVLDDLCRNIDTLSEWDWMQFASYVITDLTQLRKIKSMERVQGVSITRELLWWWSMRQATVQQLVDLLCHLELYRAAQIVLSWKPVPESTSPLPAFPEAVKPGAVATSRRNLKDEQEKVRPVKPRSLLDTGPIMAGAQRQRPCEMDAPCSLKTDAPDSPQSKYCSTSTSAPKQERLLGLPGDRLFWSEADVVQATEDFDQSHRISEGTFADIYQGQRNGVAFAFKKLREVAGSSPGSMDRFLQAEMQLCLRCCHANVLPLLGFCTGRQFHSLIYPYMANGSLHDRLWAQGNSDMLPWPQRASICSGLLLAVEHLHSLDIIHSNVKSANVLLDQHLNPKLAHPVAHPHPDNKKTKYTVMRTHLFQASAAYLPEHFIRVGQLTKQVDIFSCGIVLAEVLTGIPAMDKDRSPVYLKDLLLSEIPNSTSSVCSRKTSMGKAVVKEICQRHVEKRAGLLPEACEEAWATAVSVCLRRRNASVEEARVSLAGVEEQLRGQLSLPWSRVSEATGSSSNTPEETDDVDNSSLSVPSLVMMASCPGAASSPLFTGHGAAQPSTSGRQEADSSSEACTGPQTPQNATETSWKIEINEAKRRLMENIVLYKEERLDSSELFGP
chain 2: not shown

Variants of: B1
Assay: proximity ligation assay (PLA)
Details: with ALYREF [human (endogenous in IL1R-293 and HeLa)]; Hela cells transfected; Mouse anti-ALYREF and Rabbit anti-FLAG antibody; read off a plot

Variant | response (% PLA positive cells)
chain 1 K361A K362A K364A | 0.6
chain 1 K123R K182R K592R | 0.45
chain 1 K235A K236A | 0.2
